Assay [1] deals with ForJ (Streptomyces formicae). Nature of the assay: mass photometry.
Assay [2] has as its target ForJ (Streptomyces formicae). In words: mass photometry. This is another data set of the same source.
Assay [3] deals with ForJ (Streptomyces formicae). In words: non-reducing SDS-PAGE.
In assay [4] the target is ForJ (Streptomyces formicae). Nature of the assay: non-reducing SDS-PAGE. This is another data set of the same source.

Data on one substance can be found in article doi:10.1101/2025.03.04.641395.

Usually stoichiometry N stands for the number of molecules, sites or subunits per partner or assembly.

Regarding ForJ (natural protein), the stoichiometry N was 2 in assay [1], 4 in assay [2], 4 in assay [3] and 2 in assay [4].
